According to publication doi:10.1101/2020.05.03.074682:

Target: biotinylated C-terminal cytosolic tail of GCS
Test: ITC

GRASP domain of GRASP55 (recombinant, used for ITC) (domain or fragment)
Kd: 2000 nM
